# Test: yeast display, Sf9 membrane polyspecificity reagent, FACS + sequencing; frameworks hold sequencing errors
# Method in brief: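 Galactose induction of a Saccharomyces cerevisiae BJ5465 synthetic nanobody display library ran 36–48 hours. The cells were then stained for 1 hour at 4 °C with 10% biotinylated, detergent-solubilized Sf9 membrane reagent, pulled down on streptavidin microbeads and FACS-sorted into low and high (top ~1%) gates on expression and reagent-binding fluorescence. Labels for polyreactivity follow the gate of origin.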
row,Sequence,polyreactivity (PSR sort gate)
1,QVHLVESGGGLVQAGGSLRLSCAASGRIFARYAMGWYRQAPGKEREFVASISFRGGSTYYADSVKGRFTISRDNAKNTVYLQMNSLKPEDTAVYYCAAEGYTRAYSGFYWYDYWGQGTQVTVSS,high polyreactivity
2,QVHLVESGGGLVQAGGSLRLSCAATGSIFDQNAMGWYRQAHGKVRELVAAITRGGSTKYADSVKGRFTISRDNAKNTVYLQMNSLKPEDTAVYYCARTARRRYQPYEYWGQGTQVTVSS,low polyreactivity
3,QVQLVESGGGLVQAGGSLRLSCAASGFIFWYYAMGWYRQAPGKERELVAAISARDGSTYYADSVKGRFTISRDNAKNTVYLQMNSLKPEDTAVYYCNAVQRYPKFRMDYWGQGTQVTVSS,low polyreactivity
4,QVQLVESGGGLVQAGGSLRLSCAASGSTFTGYAMGWYRQAPGKEREFVATITKRGGRTYYADSVKGRFTISRDNAKNTVYLQMNSLKPEDTAVYYCARDQGKLVVPYDYWGQGTQVTVSS,high polyreactivity
5,QVQLVESGGGLVQAGGSLRLSCAASRRISHYYAMGWYRQAPGKERALVASIRISGGSTYYADSVKGRFTISRDYAKNTVFLQMNSLKPEDTAVYYCATLGYNWRRLYYWGQGTEVTVSS,high polyreactivity
6,QVQLVESGGGLVQAGGSLRLSCAASGSIAYNAMGCYRQAPGKERELVASIRASGGRTYYADSVKGRFTISRDNAKNTVYLQMNSLKPEDTAVYYCAAYAYNAIEYGYWGQGTQVTVSS,low polyreactivity
7,QVQLVESGGGLVQAGGSLRLSCAASGRIFALYAMGWYRQAPGKERELVAAISGGGGSTYYADSVKGRFTISRDNAKNSVYLQMNSLKPEDTAVYYCAARGLSGSSVKYGYWGQGTQVTVSS,high polyreactivity
8,QVQLVESGGGLVQAGGSLRLSCAASGFTFDKYAMGRYRQAPGKERDLDAGITRSGSTYYADSVKGRFTISRDNAKNTVYLQMNSLKPEDTAVYYCKARPRGSYNRPNYPRYYYCGQGTQVTVSS,high polyreactivity
9,QVQLVESGGGLVQAGGSLRLSCAGSGINFHLYAMGWYRQAPGKERELVAAISWNGSSTYYADSVKGRFTISRDNAKNTVYLQMNSLKPEDTAVYYCAASYGYFEDYGYWGQGNQVTVSS,low polyreactivity
10,QVQLVESGGGLVQAGGSLRLSCAASGITSSAYAMGWYRQAPGKERELVARITWSGGRTHYADSVKGRFTISRDNAKNTVYLQMNSLKPEDTAVYYGYWLGYKEDDYWGQGTQVTVSS,high polyreactivity
11,QVQLVESGGGLVQAGGSLRLSCAAYGFTFWWYAMGWYRQAPGNERELVAAISASGASTYYADSVKGRFTISRDNAKNTVYLQMNSLKPEDTAVYYCAVVGLLRLYYWGQGTQVTVSS,high polyreactivity
12,QVQLVESGGGLVQAGGSLRLSCAASGSIFPSYVMGWYRQAPGKERELVAGITSSGGSTYYADSVKGRFTISRDNAKNTVYLQMNSLKPEDTAVYYCAARWKPASYGYGYWGQGTQVTVSS,low polyreactivity
13,QVQLVESGGGLVQAGGSLRLSCAASGSIFYVNGMGWYRQAPGKEREFVARITLSGTSTYYADSVKGRFTISRDNAKNTVYLQMNSLKPEDTAVSYCAAPYFTYGQDDDDYWGQGTQVTVSS,low polyreactivity
14,QVQLVESGGGLVQAGGSHRLSSAASGNTFGINAMGWYRQAPGKERELVASISFTGSSTYYADSVKGRFTISRDNAKNTVYLQMNSLKPEDTAVYYCNRDRITLYEYDYWGQGTQVTVSS,low polyreactivity
15,QVQLVESGGGLVQAGGSLRLSCAASGRIFSKNAMGWYRQAPGKERELVAAIDSSGDSTNYADSVKGRFTISRDNAKNTVYLQMNSLKTEDTAVYYCAATLGYRWSGFEYWGLGTQVTVSS,high polyreactivity
16,QVQLVESGGGLVQAGASLRLSSAASGRTFRRNAKRWYRQAAGKERELVAFITGTGSTTYYADSVKGRFTISRDNAKNTVYLQMYSLKPEDTAVYYCAASSKYQDYWGQGTQVTVSS,high polyreactivity
17,QLQLVESGGGLVQAGGSLRLSCAASGRTLQWSTMGGYRQAPGKERELVAVISKSGGRTYYADSVKGRFTISRDNAKNTVYLQMNSLKPEDTAVYYCNTPHRSSSVRSYGYWGQGTQVTVSS,high polyreactivity
18,QVQLVESGGGLVQAGGSLRLTCAASVRTCYSYALGWYRQEPGKEMELVASISSGGGTNYADSVKGRFTISRYNAKNTVFLQMNSLKPEDTAVYYFAAYSSWGGFDYWGQGTQLTVSS,low polyreactivity
19,QVQLVESGGGLVQAGGSLRLSCADSGFTFSWYAMGWYRQAPGKERELVAAISLRGGSTYYADSVKGRFTISRENAKNTVYFQMNSLKPEDTAVYYCAADSFRWRYKNFYYWGQGTQVTLSS,high polyreactivity
20,QVQLVESGGGIVQAGGSLRLSCAASGRIFSKNTMGRYRKAPGKERELVAAIRSRAGSTYYADSVKGRFTISRDNAKNTVYLQMNSLIPEDTAVYYCAVPWFRSVDFDYWGQGTQVTVSS,low polyreactivity
21,QVQLVESGGGLVQAGGSLRLSCAPSGSTFYSYAMGGYRQAPGKERELVAAITVSGTSTYYADSVKGRFTISRDNAKNTVYLQMNSLKPEDTAVYYCAARPRRRYYGYDSWGQGTQVTVSS,high polyreactivity
22,QVQLVESGGGLVQAGGSLSLSCAASGIIFGRNALGWYRQAPGKEREMVAGITRRGARTYYADSVKGRFTISRDNAKNTVDLQMNSLKPEDTAVYYCATYSVQTDYGRGDYWGQGTQVTVSS,high polyreactivity

row,Sequence,polyreactivity (PSR sort gate)
1,QVQLVESGGCLVQAGGSLRLSCAASGSTIYAMGWYRQAPGKERELVAGINRSGTRTYYADSVKGRFTISRDNAKNTVYLQMNSLKPEDTAVYYCAALVYRPTYGYIFDYWGQGTQVTVSS,high polyreactivity
2,QVQLVESGGGLVQEGGSLRLSCAASGFIFGWYAMGWYRQAPGKERELVATISSSGGSTYYADSVKGRFTISRDNAKNTVYLQMNSLKPEDTAVYYCAARPRRYYSAQDMDYWGQGTQVTVSS,high polyreactivity
3,QVQLVDSGGGLVQAGGSLRLSCAASGRIFYYYAMGWYRQAPGKEREFVAAINSRDGSTNYADSVKGRFTISRDNAKNTVYLQMNSLKPEDTAVYYCAAEGYRSWRGLRSRYYYWGQGTQVTVSS,high polyreactivity
4,QVQLVESGGGLVQAGASRRLSCAASGSNFASYAMGWYRQAPGKERELVAAITRRGGSTDYADSVKGRFTISRDNEKYTVDLHMNLLKPEDTAVYYCPTYSYPERTGGQRTHYYWGQGTQVTVSS,high polyreactivity
5,QVQLVESGGGLVQAGGSLRLSCAASGSIFYHNAMGWYRQAPGKERELVAAITWSGSTTYYADSVKGRFTISRDNAKNTVYLQMKSLKPEDTAVYYCNAGNRHGHYDYWGQGTQVTVSS,low polyreactivity
6,QVQLVESGGGLVQAGGSLRLSCAASGNTFPFNAMGWYRQAPGKERELVAAISRGGSTYYADSVKGRFTISRDNAKNTVYLQMISLKPEDTAVYYCAVSAGKRRLDYWGQGTQVTVSS,high polyreactivity
7,QDQLVESGGGLVQAGGSLRLSCAASGFTFSHNVMGWSRQAPGKERELVAAITWSGDGTYYADSVKGRFTISRDNAKKSVYFQMNSLKTEDTAVYYCNARYGKEYDYWGQGTQVTVSS,low polyreactivity
8,QVQLVESGGGLVQAGGSLRLSCAASGSTFAYYTMGWYREAPGKERELVAAISKSGGSTTYADSVKGRFTISRDNAKNTVYLQMNSLKPEDTAVYYCAAYDRVENYNYWGQGTQVTVSS,high polyreactivity
9,QVHLVESGGGLVQAGCSLRLRSAASGRIFSRNAMGRYRQAPGKERELVAAISTGGTTNYADSVKGRFTISRDNANNTVYLQMNSLKPEDTALYYCNAGLLRRRMDYWGQGTQVTVSS,high polyreactivity
10,QVQLVESGGGLVQAGGSLRLSCAASGSIFSGYTMGWYRQAPGKERELVATISSSGGRTRYADSVKGRFTISRDNAKNTVYLQMNSLKPEDTAVYYCAAAYYVKYNSEYEYWGQGTQVTVSS,high polyreactivity
11,QVQLVESAGGLVQAGGRLRLSCPPSGSTFAYNAMGWYRPEPGKERELVADITSGGSTKYADSVKVRFTISRDNAKNTVFLQMNSLKPEDTAVYYCAAVSVISGDFNYWGQGTEVTVSS,low polyreactivity
12,QVQLVESGGGLVQAGGSLRLSCAASGRTLAFNAMGWSRQAPGKERELGAGIRNGTSTNYADSVKGRFTISRVNAKNTVYLQMNCLKPEDTADYYCNVPYYLQSYLSGYDYWGQGTQVSVSS,low polyreactivity
13,QVQLVESGGGIDQAGGSLRLRCAASGFIFRYYAMGWYRLAPGKESELVAVISASGGSTYYADSVKGRFTISRDNAKKTVYLQMNSRKPEDTAVYYCNTKRYFFHRGDMDYWGQGTQVTVSS,high polyreactivity
14,QVQLVESGGGLVQAGGSLRLSCAASGSIFYRYAMGWYRPAPGKERELVAAISSTGSTYYADSVKGRFTISRDNAKNTVYLQMNSLKPEDTAVYYCAARQGYRSYRRYDYWGQGTQVTVSS,high polyreactivity
15,QVQLVESGGGLVQAGGSLRLSCAASGRTFALNAMGWYRQAPGKERELVADISYSGGSTYYADSVKGRFTISRDNAKNTVYLQMNSLKPEDTAVYYCAADSPWYVAYYYGYRVDYWGQGTQVTVSS,high polyreactivity
16,QVQLVESRGGLVQAGGSLRLSCACSGGIFVKSAMGCYRKAPCKERELVAAISKRGGRTYYADSVKGRFTISRDNAKNTVYLQMNSLKPEDTAVYYCYADVGVEYDYWGQGTQVTVSS,high polyreactivity
17,QVQLVESGGGLVQAGGSLRLSCAASGFTFVINYMGWYRQAPGKERELVADITSGGDTYYADSVKGRFTISRDNAKNTVYLQMNSLNPEDTAVYYCAADIYPDWIYLLYGYWGQVTQVTVSS,low polyreactivity
18,QVQLVESGGGLVQAGGSLRLSCAASGFTFTRNAMGWYRQAPGKERELVAAISSSAGSTSYADSVKGRFTISRDNAKNTVYLQMNSLKPEDTAVYYCAKSYRSSRRYNYWGQGTQVTVSS,high polyreactivity
19,QVQLVESGGGLVQAGGSLRLSCGSSGSIFKTNAMGWYRQAPGKERELVAANTWRGGSTYYADSVKGRFTNSRDNAKNTVYLQRNSLKPEDTAVYYCAARQYYGAASYRYYYWGQGTQVTVSS,high polyreactivity
20,QVHLVESGGGLVQAGGSLRLSCAASGSTFFIYTMGWYRQAPGKEREFVAAISWTGGRTYYADSVKGRFTISRDNAKNTVYLQMNSLKPEDTAVYYCAARYKYSSYDYWGEGTQVTVSS,high polyreactivity
21,QVQLVESGGGLVQAGGSLRLSCAASGRIRYAMGWYRQAPGKERELVAGIRWSGTSTYYADSVKGRFTISRDNAKNTVYLQMNSLKPEDTAVYYCNAKAQSRYVRYGYWGQGTQVSVSS,high polyreactivity

# Source: the nanobody polyreactivity screen of Harvey et al. (2022)
